Test results: publication PMC3234886 (Biochemistry, 2011)
Numbering of substitutions follows the chain as printed.

Key:
[1] = biological target: His6-Rna14 (wild type) (Saccharomyces cerevisiae) (UniProt P25298); assay: AUC
[2] = biological target: His6-Rna14 (wild type) (Saccharomyces cerevisiae) (UniProt P25298); assay: cross-linking
[3] = biological target: His6-Rna14 (wild type) (Saccharomyces cerevisiae) (UniProt P25298); assay: SEC
SEC = biological target: the molecule itself; assay: SEC
cross-linking = biological target: the molecule itself; assay: cross-linking
[4] = biological target: MBP-tagged Pcf11/Clp1 complex (yeast, UniProt P39081 1-626; Q08685 1-445); assay: pull-down
AUC = biological target: the molecule itself; assay: AUC
[5] = biological target: T1, His6-Rna14-ES (R562E/Y563S) (Saccharomyces cerevisiae, UniProt P25298 1-677, R562E | Y563S); assay: SEC
T1 sequence (looked up): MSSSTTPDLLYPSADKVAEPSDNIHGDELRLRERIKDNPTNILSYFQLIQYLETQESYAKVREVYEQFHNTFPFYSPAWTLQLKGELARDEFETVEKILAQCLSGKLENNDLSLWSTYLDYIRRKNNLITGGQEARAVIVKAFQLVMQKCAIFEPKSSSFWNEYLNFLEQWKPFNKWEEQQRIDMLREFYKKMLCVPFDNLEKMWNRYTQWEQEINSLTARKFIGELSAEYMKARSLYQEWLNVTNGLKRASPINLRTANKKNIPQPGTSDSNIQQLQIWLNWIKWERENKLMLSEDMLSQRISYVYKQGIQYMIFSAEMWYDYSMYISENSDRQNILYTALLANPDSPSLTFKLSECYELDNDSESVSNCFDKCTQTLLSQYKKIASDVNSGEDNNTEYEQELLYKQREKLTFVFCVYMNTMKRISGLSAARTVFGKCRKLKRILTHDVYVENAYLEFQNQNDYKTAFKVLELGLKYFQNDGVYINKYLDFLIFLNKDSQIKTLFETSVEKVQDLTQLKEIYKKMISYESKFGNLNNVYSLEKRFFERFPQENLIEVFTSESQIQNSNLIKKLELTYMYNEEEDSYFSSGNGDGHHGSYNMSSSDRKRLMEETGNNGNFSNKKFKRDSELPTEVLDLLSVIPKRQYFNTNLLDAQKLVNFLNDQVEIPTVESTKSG

[6] = biological target: T1, His6-Rna14-ES (R562E/Y563S); assay: cross-linking

MBP-tagged Pcf11/Clp1 complex, sequence (P39081 whole entry, chain 1 of 2): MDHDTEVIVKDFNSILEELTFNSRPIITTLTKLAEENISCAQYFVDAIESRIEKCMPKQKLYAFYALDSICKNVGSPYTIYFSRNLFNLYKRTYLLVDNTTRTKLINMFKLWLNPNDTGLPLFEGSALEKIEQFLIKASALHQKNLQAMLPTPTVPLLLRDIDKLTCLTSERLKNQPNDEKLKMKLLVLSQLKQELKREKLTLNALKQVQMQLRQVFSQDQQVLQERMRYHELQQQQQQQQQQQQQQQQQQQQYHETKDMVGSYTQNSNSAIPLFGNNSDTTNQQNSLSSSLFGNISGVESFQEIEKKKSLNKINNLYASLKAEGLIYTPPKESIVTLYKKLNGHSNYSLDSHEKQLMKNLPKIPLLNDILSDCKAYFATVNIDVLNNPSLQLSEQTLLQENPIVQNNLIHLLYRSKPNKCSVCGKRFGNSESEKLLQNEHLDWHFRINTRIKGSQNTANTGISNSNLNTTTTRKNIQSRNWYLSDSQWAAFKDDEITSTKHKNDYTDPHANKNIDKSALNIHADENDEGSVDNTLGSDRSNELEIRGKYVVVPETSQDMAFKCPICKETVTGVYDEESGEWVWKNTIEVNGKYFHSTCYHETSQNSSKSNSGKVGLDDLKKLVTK
MBP-tagged Pcf11/Clp1 complex, sequence (Q08685 whole entry, chain 2 of 2): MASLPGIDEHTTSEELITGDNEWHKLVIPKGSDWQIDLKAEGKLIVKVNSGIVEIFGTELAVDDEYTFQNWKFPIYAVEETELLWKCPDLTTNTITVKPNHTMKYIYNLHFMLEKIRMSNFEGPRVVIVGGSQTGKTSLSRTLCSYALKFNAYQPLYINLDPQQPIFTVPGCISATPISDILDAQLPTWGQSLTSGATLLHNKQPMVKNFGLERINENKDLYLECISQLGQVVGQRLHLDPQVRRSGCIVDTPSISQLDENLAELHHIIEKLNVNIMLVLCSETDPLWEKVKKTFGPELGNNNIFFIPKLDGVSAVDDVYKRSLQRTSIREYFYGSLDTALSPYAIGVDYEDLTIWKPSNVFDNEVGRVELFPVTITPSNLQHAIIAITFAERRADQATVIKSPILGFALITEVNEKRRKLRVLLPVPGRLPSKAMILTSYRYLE

For “Rna15 (untagged, co-expressed with Rna14) (from UniProt P25299 1-296) (natural protein)”, the stoichiometry N (Rna15 per Rna14 (2:2)) [1] was 1, the stoichiometry N (Rna15 per Rna14 (2:2)) [2] was 1 and the ratio of Rna14 to Rna15 (intensity of stained bands, SEC peak fractions) [3] was 2.7.

B1: His6-Rna14 (wild type) (natural protein, Saccharomyces cerevisiae, UniProt P25298 1-677, looked up)
chain: T1 sequence (looked up) with E562R, S563Y
B1 was tested, and the “stoichiometry N” value (SEC) was 2 and the “stoichiometry N” value (cross-linking) was 2 copies of Rna14 in the complex.

B2: wild-type Rna14/Rna15 complex (2:2 heterotetramer) (complex, Saccharomyces cerevisiae)
chain 1: T1 sequence (looked up) with E562R, S563Y
chain 2: MNRQSGVNAGVQNNPPSRVVYLGSIPYDQTEEQILDLCSNVGPVINLKMMFDPQTGRSKGYAFIEFRDLESSASAVRNLNGYQLGSRFLKCGYSSNSDISGVSQQQQQQYNNINGNNNNNGNNNNNSNGPDFQNSGNANFLSQKFPELPSGIDVNINMTTPAMMISSELAKKPKEVQLKFLQKFQEWTRAHPEDAVSLLELCPQLSFVTAELLLTNGICKVDDLIPLASRPQEEASATNNNSVNEVVDPAVLNKQKELLKQVLQLNDSQISILPDDERMAIWDLKQKALRGEFGAF
For B2, the “stoichiometry N” value [4] was 1 Clp1/Pcf11 sub-complex per CF IA and the Kd (AUC) was 45 µM.

B3: Rna15 (untagged, co-expressed with Rna14) (natural protein, Saccharomyces cerevisiae, UniProt P25299 1-296, looked up)
chain: B2 chain 2
In the case of B3, the “ratio of Rna14 to Rna15 (intensity of stained bands, SEC peak fractions)” value [5] is reported as 2.5 and the “stoichiometry N” value [6] is reported as 1 Rna15 per Rna14-ES (1:1).
